Measured values reported in the supplement of paper PMC10567573.

B1: TMEM40 (parent)
chain: YGETDFHKQDGKAGLFSQEQYERN

Variants of: B1
Experiment: protein stability index of a GFP-peptide fusion (GPS, HEK-293T) (PSI 1-6); higher = more stable
Details: c terminus: a fixed tail appended
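Note: lentivirally expressed fusions sorted by FACS into six bins by GFP to DsRed ratio, PSI derived from sequencing read proportions per bin multiplied by bin number.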

First: G11D
Second: G11T
The protein stability index of the first is higher: 4.5 for the first, 3.68 for the second.

First: G11W
Second: G11K
The protein stability index of the first is lower: 3.2 for the first, 4.16 for the second.

Going from L15P to L15V, the protein stability index falls from 4.89 to 4.18.

Going from L15C to L15R, the protein stability index rises from 4.38 to 4.43.

Going from L15H to L15Q, the protein stability index rises from 4.02 to 4.51.

Compared with L15T, L15S is higher in protein stability index: 4.55 for the first, 5.04 for the second.

Compared with D5I, D5S is lower in protein stability index: 3.15 for the first, 2.88 for the second.

Going from N24L to N24T, the protein stability index falls from 4.16 to 3.89.

Going from N24H to N24Q, the protein stability index rises from 3.88 to 4.09.

First: N24P
Second: N24D
The protein stability index of the first is lower: 3.25 for the first, 4.4 for the second.

Going from N24K to N24S, the protein stability index falls from 4.6 to 4.22.

Going from S17F to S17A, the protein stability index rises from 3.1 to 3.79.

First: S17Y
Second: S17R
The protein stability index of the first is lower: 3.66 for the first, 4.27 for the second.

First: S17E
Second: S17M
The protein stability index of the first is higher: 4.51 for the first, 3.97 for the second.

Going from S17T to S17G, the protein stability index rises from 3.81 to 3.94.

Going from Y21Q to Y21N, the protein stability index rises from 4.44 to 4.47.

First: Y21P
Second: Y21M
The protein stability index of the first is higher: 4.32 for the first, 3.92 for the second.

First: Y21S
Second: Y21K
The protein stability index of the first is higher: 4.63 for the first, 4.54 for the second.

Going from Y21R to Y21V, the protein stability index falls from 5.25 to 4.38.

Compared with E3Y, E3T is lower in protein stability index: 3.79 for the first, 3.61 for the second.

First: E3W
Second: E3V
The protein stability index of the first is lower: 3.49 for the first, 4.38 for the second.

Compared with E3R, E3P is higher in protein stability index: 3.85 for the first, 3.88 for the second.

Going from E3D to E3N, the protein stability index falls from 3.09 to 2.46.

Compared with E3L, E3G is lower in protein stability index: 4.08 for the first, 2.36 for the second.

Compared with H7C, H7T is higher in protein stability index: 4.35 for the first, 4.53 for the second.

First: H7R
Second: H7Q
The protein stability index of the first is lower: 4.08 for the first, 4.32 for the second.

Going from H7V to H7W, the protein stability index falls from 4.24 to 3.12.

Compared with H7I, T4W is lower in protein stability index: 4.37 for the first, 3.28 for the second.

Going from T4Y to T4E, the protein stability index rises from 4.04 to 4.83.

Going from T4H to T4F, the protein stability index rises from 4.13 to 4.43.

First: T4V
Second: T4I
The protein stability index of the first is higher: 4.14 for the first, 4 for the second.

First: K12R
Second: K12S
The protein stability index of the first is lower: 4.1 for the first, 4.86 for the second.

Compared with K12N, K12M is lower in protein stability index: 4.78 for the first, 4.14 for the second.

Compared with K12E, K12D is higher in protein stability index: 4.82 for the first, 4.86 for the second.

First: Q9P
Second: Q9Y
The protein stability index of the first is higher: 3.56 for the first, 3.37 for the second.

Going from Q9W to Q9R, the protein stability index rises from 2.99 to 4.13.

Compared with Q9T, Q9F is lower in protein stability index: 3.85 for the first, 3.38 for the second.

First: Q9A
Second: Q9E
The protein stability index of the first is lower: 3.96 for the first, 4.78 for the second.

First: Q9L
Second: F16T
The protein stability index of the first is lower: 3.49 for the first, 4.58 for the second.

Going from F16C to F16E, the protein stability index rises from 3.78 to 4.3.

Compared with F16A, F16N is lower in protein stability index: 4.97 for the first, 4.91 for the second.

Going from F16Q to F16L, the protein stability index falls from 5.1 to 4.47.

Going from F16H to F16W, the protein stability index falls from 5.06 to 3.08.

Going from D10R to D10P, the protein stability index falls from 3.37 to 3.12.

Compared with D10L, D10I is lower in protein stability index: 2.09 for the first, 1.92 for the second.

First: D10S
Second: D10K
The protein stability index of the first is lower: 2.96 for the first, 3.44 for the second.

First: G14I
Second: G14D
The protein stability index of the first is lower: 3.93 for the first, 4.79 for the second.

Compared with G14E, G14F is lower in protein stability index: 4.63 for the first, 3.69 for the second.

First: G14Y
Second: G14S
The protein stability index of the first is lower: 3.74 for the first, 4.68 for the second.

Going from Q20T to Q20K, the protein stability index falls from 4.15 to 3.79.

Going from Q20R to Q20N, the protein stability index rises from 3.92 to 4.12.

Going from Q20F to Y1D, the protein stability index rises from 3.41 to 4.92.

Going from Y1H to Y1Q, the protein stability index rises from 4.38 to 5.3.

Going from Y1A to Y1G, the protein stability index falls from 4.89 to 4.5.

Compared with Y1N, A13L is lower in protein stability index: 4.77 for the first, 4.07 for the second.

Compared with A13Y, A13R is higher in protein stability index: 3.41 for the first, 3.96 for the second.

Compared with A13W, A13G is higher in protein stability index: 3.87 for the first, 4.08 for the second.

Compared with A13P, A13V is higher in protein stability index: 3.54 for the first, 4.27 for the second.

Going from A13T to A13H, the protein stability index falls from 4.28 to 4.21.

Going from A13I to G2F, the protein stability index rises from 4.03 to 4.61.

Going from G2L to G2A, the protein stability index falls from 4.46 to 3.49.

Going from G2H to G2R, the protein stability index rises from 3.47 to 4.66.

Compared with G2K, G2N is higher in protein stability index: 4.68 for the first, 4.78 for the second.

Compared with G2M, G2Q is lower in protein stability index: 3.92 for the first, 3.67 for the second.

Going from G2V to F6V, the protein stability index rises from 1.6 to 5.09.

First: F6R
Second: F6M
The protein stability index of the first is lower: 4.54 for the first, 4.91 for the second.

Going from F6W to F6N, the protein stability index rises from 2.35 to 5.

Going from F6E to E19G, the protein stability index falls from 5.38 to 3.66.

Going from E19R to E19L, the protein stability index falls from 3.49 to 2.21.

Going from E19M to E19K, the protein stability index rises from 3.15 to 3.23.

Going from E22C to E22A, the protein stability index rises from 3.61 to 3.91.

First: E22Q
Second: E22R
The protein stability index of the first is higher: 3.8 for the first, 3.71 for the second.

First: E22L
Second: E22K
The protein stability index of the first is lower: 3.61 for the first, 3.67 for the second.

Going from E22H to E22P, the protein stability index rises from 3.34 to 3.48.

First: E22F
Second: R23M
The protein stability index of the first is lower: 3.19 for the first, 4.17 for the second.

Going from R23N to R23K, the protein stability index rises from 4.16 to 4.37.

Compared with R23Y, R23E is higher in protein stability index: 4.02 for the first, 4.7 for the second.

First: R23V
Second: R23A
The protein stability index of the first is lower: 3.67 for the first, 4.69 for the second.

Going from Q18T to Q18L, the protein stability index rises from 3.41 to 3.81.

First: Q18F
Second: Q18N
The protein stability index of the first is lower: 3.65 for the first, 3.66 for the second.

Going from Q18V to K8C, the protein stability index rises from 3.36 to 4.5.

Going from K8A to K8I, the protein stability index falls from 4.53 to 3.89.

Going from K8E to K8H, the protein stability index falls from 4.67 to 4.18.

K8W gave a protein stability index of 2.36.
